# Source: patent US20210260070A1, “LYSIN CF-301 RESENSITIZES METHICILLIN-RESISTANT STAPHYLOCOCCUS AUREUA (MRSA) TO PENICILLIN DERIVATIVES AND FIRST GENERATION CEPHALOSPORINS” (priority 2018, published 2021)
# Where “and” joins values, the source holds several entries; their conditions need not be identical. Equal values may be shown once.
# How the values were obtained:
# Assay type in all cases: cell-based, Staphylococcus aureus
# [1] = tested on: MRSA MW2 mutant and control isolates from valvular vegetations; test: MICs of mutant and control isolates from the rabbit IE study
# Source text: The PlySs2 and oxacillin MICs of each mutant and control strain are shown below in Tables 7 and 8, wherein + indicates the presence of the mutation and—indicates an absence of the mutation.
# MRSA strain ATCC 33591 = test: Broth microdilution checkerboard assay; design: unit not given here; details: for MICinitial: each agent alone (initial); for MICfinal: * = Resensitization
# Source text: (§1) In some embodiments, the present lysin polypeptides reduce the minimum inhibitory concentration (MIC) of an antibiotic. Any known method to assess MIC may be used. In some embodiments, a checkerboard assay is used to determine the effect of a lysin on antibiotic concentration. The checkerboard assay is based on a modification of the CLSI method for MIC determination by broth microdilution (See Clinical and Laboratory Standards Institute (CLSI), CLSI. 2015. Methods for Dilution Antimicrobial Susceptibility Tests for Bacteria That Grow Aerobically; Approved Standard-10th Edition. Clinical and Laboratory Standards Institute, Wayne, Pa., which is herein incorporated by reference in its entirety and Ceri et al. 1999. J. Clin. Microbiol. 37: 1771-1776, which is also herein incorporated by reference in its entirety).
# (§2) Checkerboards are constructed by first preparing columns of e.g., a 96-well polypropylene microtiter plate, wherein each well has the same amount of antibiotic diluted 2-fold along the horizontal axis. […] The lysin and antibiotic dilutions are then combined, so that each column has a constant amount of antibiotic and doubling dilutions of lysin, while each row has a constant amount of lysin and doubling dilutions of antibiotic. Each well thus has a unique combination of lysin and antibiotic. Bacteria are added to the drug combinations at a given concentration. […] Summation fractional inhibitory concentrations (ΣFICs) are calculated for each drug and the minimum ΣFIC value (ΣFICmin) is used to determine the effect of the lysin/antibiotic combination.
# (§3) A step-wise approach was used to evaluate PlySs2 as a resensitizing agent. First, broth microdilution checkerboard assays were used to determine fractional inhibitory concentration index (FICI) values for combinations of PlySs2 with three β-lactam antibiotics [oxacillin (OXA), nafcillin (NAF), and cefazoline (CFZ)] against nine different MRSA strains. Data from the checkerboard assays were generated to determine the interaction and potency of PlySs2 with the β-lactam antibiotics in comparison to their individual activities. This comparison is represented as the FICI value, whereby values of ≤0.5 are consistent with synergy, values of >0.5-<1 are highly-additive, values of 1-≤2 are indifferent, and values >2 are antagonistic. Representative single agent MICs are also shown, determined for each agent alone (initial) and in combinations (final). Resensitization occurs in synergistic combinations in which the β-lactam antibiotic MIC values fall below established breakpoints, e.g. a MIC value of ≤2 for β-lactam-sensitive isolates, a MIC value of ≥4 for β-lactam-resistant isolates. See Clinical and Laboratory Standards Institute (CLSI), CLSI. 2019. M100 Performance Standards for Antimicrobial Susceptibility Testing; 29th Edition. Clinical and Laboratory Standards Institute, Wayne, Pa.
# MRSA strain CAIRD 426 = test: Broth microdilution checkerboard assay; design: unit not given here; details: for MICinitial: each agent alone (initial); for MICfinal: * = Resensitization
# Source text: as §1, §2, §3
# MRSA strain ATCC 43300 = test: Broth microdilution checkerboard assay; design: unit not given here; details: for MICinitial: each agent alone (initial); for MICfinal: * = Resensitization
# Source text: as §1, §2, §3
# MRSA strain HPV 107 = test: Broth microdilution checkerboard assay; design: unit not given here; details: for MICinitial: each agent alone (initial); for MICfinal: * = Resensitization
# Source text: as §1, §2, §3
# MRSA strain NRS 11 = test: Broth microdilution checkerboard assay; design: unit not given here; details: for MICinitial: each agent alone (initial); for MICfinal: * = Resensitization
# Source text: as §1, §2, §3
# MRSA strain MW2 [2] = test: Broth microdilution checkerboard assay; design: unit not given here; details: for MICinitial: each agent alone (initial); for MICfinal: * = Resensitization
# Source text: as §1, §2, §3
# MRSA strain MW2 [3] = test: 21-day in vitro serial passage resistance assay
# Source text: Serial passage resistance studies were undertaken to assess the ability of PlySs2 lysin to suppress the emergence of antibiotic resistance when used in combination with oxacillin used to treat S. aureus infections. Methods used to perform serial passage experiments are described in Palmer et al., Genetic basis for daptomycin resistance in enterococci, ANTIMICROBIAL AGENTS AND CHEMOTHERAPY (2011); 55:3345-56 and Berti et al., Altering the Proclivity towards Daptomycin Resistance in Methicillin-Resistant Staphylococcus aureus Using Combinations with Other Antibiotics, ANTIMICROBIAL AGENTS AND CHEMOTHERAPY (2012); 56:5046-53, respectively.
# 21-day in vitro serial passage resistance assays were performed to determine the impact of PlySs2 (alone) on oxacillin and PlySs2 MIC values and the potential for a “seesaw” effect similar to that previously shown, whereby exposures to daptomycin or vancomycin were accompanied by increased susceptibility (and the potential for resensitization) to β-lactam antibiotics [Renzoni et al., Molecular Bases Determining Daptomycin Resistance-Mediated Resensitizatoin to β-Lactams (Seesaw Effect) in Methicillin-Resistant Staphylococcus aureus, ANTIMICROBIAL AGENTS AND CHEMOTHERAPY (2017) 61(1):e01634-16 and Werth et al., Evaluation of Ceftaroline Activity against Heteroresistant Vancomycin-Intermediate Staphylococcus aureus and Vancomycin-Intermediate Methicillin-Resistant S. aureus Strains in an In Vitro Pharmacokinetic/Pharmacodynamic Model: Exploring the ‘Seesaw Effect’, ANTIMICROBIAL AGENTS AND CHEMOTHERAPY (2013); 57(6):2664-68].
# MRSA strain MW2 was serially passaged in triplicate on a daily basis for 21 days using both a 1.1-fold and 2-fold PlySs2 dilution series. As shown in FIGS. 1-3, only modest 2-fold shifts in PlySs2 MIC values were observed. […] This seesaw effect, i.e., a decrease in MRSA's susceptibility to PlySs2 accompanied by a paradoxical increase in susceptibility to oxacillin, indicates PlySs2 lysin's ability to resensitize MRSA to oxacillin. Three MRSA MW2 strain isolates were taken just prior (days 16, 11, and 8 for FIGS. 1-3, respectively) and just after (days 17, 12, and 9 for FIGS. 1-3, respectively) the observed MIC shift for whole genome sequencing.
# [4] = in combination PlySs2 + OXA (final)
# [5] = in combination PlySs2 + CFZ (final)
# [6] = in combination PlySs2 + NAF (final)
molecule,measurement,setting,value
"Cc1onc(-c2ccccc2)c1C(=O)N[C@@H]1C(=O)N2[C@@H]1SC(C)(C)[C@@H]2C(=O)O [OXA, oxacillin]",MIC,"[1]; Staphylococcus aureus, Control #1 isolate",64 µg/mL
same,MIC,"[1]; Staphylococcus aureus, Control #2 isolate",32 µg/mL
same,MIC,"[1]; Staphylococcus aureus, Control #3 isolate",64 µg/mL
same,MIC,"[1]; Staphylococcus aureus, Mutant #1 (hlgCB near, mprF L291I, rlmH K159R, ΔSCCmec)",1 µg/mL
same,MIC,"[1]; Staphylococcus aureus, Mutant #2 (hlgCB near, graR I158S, rlmH K159R, ΔSCCmec)",1 µg/mL
same,Decrease in oxacillin MIC,[1]; two mutants from the valvular vegetations,32 fold
same,MICinitial,MRSA strain ATCC 33591,256
same,MICfinal,MRSA strain ATCC 33591; [4],1*
same,MICinitial,MRSA strain CAIRD 426,4
same,MICfinal,MRSA strain CAIRD 426; [4],1*
same,MICinitial,MRSA strain ATCC 43300,8
same,MICfinal,MRSA strain ATCC 43300; [4],0.5*
same,MICinitial,MRSA strain HPV 107,8
same,MICfinal,MRSA strain HPV 107; [4],0.5*
same,MICinitial,MRSA strain NRS 11,256
same,MICfinal,MRSA strain NRS 11; [4],2*
same,MICinitial,MRSA strain MW2 [2],64
same,MICfinal,MRSA strain MW2 [2]; [4],2*
same,OXA MIC after shift,"MRSA strain MW2 [3]; MW2, serial passage in PlySs2, after the shift",16 µg/mL
same,OXA MIC before shift,"MRSA strain MW2 [3]; MW2, serial passage in PlySs2, before the shift",64 µg/mL
same,OXA MIC fold change,MRSA strain MW2 [3]; MW2 after PlySs2 exposure in serial passage,0.25 fold
"PlySs2: bacteriophage lysin derived from Streptococcus suis, amino acid sequence SEQ ID NO: 1 (245 residues) (protein, listed as Streptococcus suis) MTTVNEALNNVRAQVGSGVSVGNGECYALASWYERMISPDATVGLGAGVGWVSGAIGDTISAKNIGSSYNWQANGWTVSTSGPFKAGQIVTLGATPGNPYGHVVIVEAVDGDRLTILEQNYGGKRYPVRNYYSAASYRQQVVHYITPPGTVAQSAPNLAGSRSYRETGTMTVTVDALNVRRAPNTSGEIVAVYKRGESFDYDTVIIDVNGYVWVSYIGGSGKRNYVATGATKDGKRFGNAWGTFK",MIC,[1]; Control #1 isolate,(1 μg/mL)/
same,MIC,[1]; Control #2 isolate,(2 μg/mL)/
same,MIC,[1]; Control #3 isolate,(2 μg/mL)
same,MIC,"[1]; Mutant #1 (hlgCB near, mprF L291I, rlmH K159R, ΔSCCmec)",(2 μg/mL)
same,MIC,"[1]; Mutant #2 (hlgCB near, graR I158S, rlmH K159R, ΔSCCmec)",(1 μg/mL)
same,MICinitial,MRSA strain ATCC 33591,1
same,MICfinal,MRSA strain ATCC 33591; [5],0.25
same,MICfinal,MRSA strain ATCC 33591; [6],1.125
same,MICfinal,MRSA strain ATCC 33591; [4],0.25
same,MICinitial,MRSA strain CAIRD 426,1
same,MICfinal,MRSA strain CAIRD 426; [5],0.25
same,MICfinal,MRSA strain CAIRD 426; [6],0.25
same,MICfinal,MRSA strain CAIRD 426; [4],0.25
same,MICinitial,MRSA strain ATCC 43300,1
same,MICfinal,MRSA strain ATCC 43300; [5],0.125
same,MICfinal,MRSA strain ATCC 43300; [6],0.125
same,MICfinal,MRSA strain ATCC 43300; [4],0.25
same,MICinitial,MRSA strain HPV 107,1
same,MICfinal,MRSA strain HPV 107; [5],0.125
same,MICfinal,MRSA strain HPV 107; [6],0.25
same,MICfinal,MRSA strain HPV 107; [4],0.25
same,MICinitial,MRSA strain NRS 11,1
same,MICfinal,MRSA strain NRS 11; [5],0.25
same,MICfinal,MRSA strain NRS 11; [6],0.25
same,MICfinal,MRSA strain NRS 11; [4],0.25
same,MICinitial,MRSA strain MW2 [2],1 and 2
same,MICfinal,MRSA strain MW2 [2]; [5],0.125
same,MICfinal,MRSA strain MW2 [2]; [6],0.5
same,MICfinal,MRSA strain MW2 [2]; [4],0.25
same,Shift in PlySs2 MIC values,"MRSA strain MW2 [3]; MW2 passaged daily for 21 days in 1.1-fold and 2-fold PlySs2 dilution series, triplicate",2 fold
